Measurements from article PMC3634854, “S100A12 Suppresses Pro-inflammatory, but Not Pro-Thrombotic Functions of Serum Amyloid A” (PLoS ONE, 2013).
“And” between values parts separate entries of the source, which are not always exact repeats. Identical values can stand only once.

Molecular target: the molecule itself
Experiment: cross-linking; S100A12 (1 µg) and SAA (1 µg), alone or together, with bis[sulfosuccinimidyl] suberate (BS3, 5 µM) in PBS, in the presence or absence of 1 mM Ca2+, 30 min at RT in the dark; 10% SDS-PAGE under non-reducing conditions, silver stain

B1: Human recombinant S100A12 (natural protein, UniProt P80511 1-92, looked up)
chain: MTKLEEHLEGIVNIFHQYSVRKGHFDTLSKGELKQLLTKELANTIKNIKDKAVIDEIFQGLDANQDEQVDFQEFISLVAIALKAAHYHTHKE
notes: S100A12, human, recombinant
  stoichiometry N: 2 and 4
